For one substance, Kd results are on record in publication PMC10384427.

The experiment deals with SARS-CoV-2 N protein K65R, not SUMOylated (SARS-CoV-2) (UniProt P0DTC9). Briefly: FRET or BRET.

The term Kd denotes the equilibrium constant for the complex coming apart. A higher Kd goes with a looser complex. “SARS-CoV-2 N protein K65R, not SUMOylated (from UniProt P0DTC9 1-419) (natural protein)” registered a Kd of 1380 nM.
